Measured values taken from PMC3219716, “Indirect DNA Readout by an H-NS Related Protein: Structure of the DNA Complex of the C-Terminal Domain of Ler”.
Substitutions are numbered along the chain they refer to. Names may count otherwise.

T1: CT-H-NS (UniProt P0ACF8 95-137)
T1 chain: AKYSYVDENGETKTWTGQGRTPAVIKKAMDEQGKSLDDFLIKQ

T2: CT-Ler (Escherichia coli EHEC O157:H7, UniProt Q7DB51 70-116)
T2 chain: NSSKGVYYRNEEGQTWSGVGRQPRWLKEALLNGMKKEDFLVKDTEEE

T3: CT-Ler R90Q (Escherichia coli EHEC O157:H7, UniProt Q7DB51 70-116, R90Q)
T3 chain: T2 chain with R21Q

T4: CT-Ler R90G (Escherichia coli EHEC O157:H7, UniProt Q7DB51 70-116, R90G)
T4 chain: T2 chain with R21G

B1: AATT 10-mer (dsDNA)
DNA 1: CGCAATTGCG
DNA 2: CGCAATTGCG
B2: TATA 10-mer (dsDNA)
DNA 1: CGCTATAGCG
DNA 2: CGCTATAGCG
B3: LeeF (dsDNA)
DNA 1: TTTCTTTTTTTATTGAAATAATTGATAATA
DNA 2: TATTATCAATTATTTCAATAAAAAAAGAAA
B4: LeeG (dsDNA)
DNA 1: AAATAATTGATAATAATGTTTTTGTTACGT
DNA 2: ACGTAACAAAAACATTATTATCAATTATTT
B5: LeeH (WT) (dsDNA)
DNA 1: GCGATAATTGATACC
DNA 2: GGTATCAATTATCGC
B6: LeeH A4G (dsDNA)
DNA 1: GCGGTAATTGATACC
DNA 2: GGTATCAATTACCGC
B7: LeeH A13G (dsDNA)
DNA 1: GCGATAATTGATGCC
DNA 2: GGCATCAATTATCGC
B8: AAAT 10-mer (dsDNA)
DNA 1: CGCAAATGCG
DNA 2: CGCATTTGCG
B9: AATA 10-mer (dsDNA)
DNA 1: CGCAATAGCG
DNA 2: CGCTATTGCG
B10: AAAA 10-mer (dsDNA)
DNA 1: CGCAAAAGCG
DNA 2: CGCTTTTGCG
B11: LeeH T5C (dsDNA)
DNA 1: GCGACAATTGATACC
DNA 2: GGTATCAATTGTCGC
B12: LeeH A6G (dsDNA)
DNA 1: GCGATGATTGATACC
DNA 2: GGTATCAATCATCGC
B13: LeeH A7G (dsDNA)
DNA 1: GCGATAGTTGATACC
DNA 2: GGTATCAACTATCGC
B14: LeeH T8C (dsDNA)
DNA 1: GCGATAACTGATACC
DNA 2: GGTATCAGTTATCGC
B15: LeeH T9C (dsDNA)
DNA 1: GCGATAATCGATACC
DNA 2: GGTATCGATTATCGC
B16: LeeH G10A (dsDNA)
DNA 1: GCGATAATTAATACC
DNA 2: GGTATTAATTATCGC
B17: LeeH A11G (dsDNA)
DNA 1: GCGATAATTGGTACC
DNA 2: GGTACCAATTATCGC
B18: LeeH T12C (dsDNA)
DNA 1: GCGATAATTGACACC
DNA 2: GGTGTCAATTATCGC
B19: AATTC 10-mer (dsDNA)
DNA 1: CGGAATTCCG
DNA 2: CGGAATTCCG
B20: TTAA 10-mer (dsDNA)
DNA 1: CGCTTAAGCG
DNA 2: CGCTTAAGCG
B21: LeeFG (dsDNA)
DNA 1: AAATAATTGATAATA
DNA 2: TATTATCAATTATTT

Target: T1, CT-H-NS
Assay: NMR titration (1H-15N HSQC); Anisotropy: 40 mM HEPES pH 7.5, 60 mM K-glutamate, 0.01% NaN3, 20 C; EMSA: 15 mM Na-phosphate pH 7.5, 100 mM NaCl, 0.01% NaN3, room temperature; NMR structure:
Conditions: protein: recombinant; tags: N-terminal His6 (pHAT2); blunt, self-complementary

Binder | Kd
B1 | ~41 µM
B2 | ~102 µM

Target: T2, CT-Ler
Assay: fluorescence anisotropy; among highest affinities; Anisotropy: 40 mM HEPES pH 7.5, 60 mM K-glutamate, 0.01% NaN3, 20 C; EMSA: 15 mM Na-phosphate pH 7.5, 100 mM NaCl, 0.01% NaN3, room temperature; NMR structure:
Conditions: protein: recombinant; tags: N-terminal His6 (pHAT2); blunt

Binder | binding result
B3 | binds
B4 | binds

Target: T2, CT-Ler
Assay: fluorescence anisotropy; Anisotropy: 40 mM HEPES pH 7.5, 60 mM K-glutamate, 0.01% NaN3, 20 C; EMSA: 15 mM Na-phosphate pH 7.5, 100 mM NaCl, 0.01% NaN3, room temperature; NMR structure:
Conditions: protein: recombinant; tags: N-terminal His6 (pHAT2); blunt

Binder | Kd
B5 | 1.1 ± 0.05 µM
B6 | 1.06 ± 0.08 µM
B7 | 1.48 ± 0.09 µM
B8 | 6.17 ± 0.36 µM
B9 | 11.5 ± 0.96 µM
B10 | 8.07 ± 0.22 µM
B11 | 1.38 ± 0.11 µM
B12 | 2.48 ± 0.2 µM
B13 | 2.71 ± 0.32 µM
B14 | 1.7 ± 0.13 µM
B15 | 1.36 ± 0.08 µM
B16 | 2.31 ± 0.07 µM
B17 | 1.43 ± 0.04 µM
B18 | 1.45 ± 0.1 µM

Same assay, conditions: protein: recombinant; tags: N-terminal His6 (pHAT2); blunt, self-complementary

Binder | Kd
B1 | 3.45 ± 0.56 µM
B19 | 4.14 ± 0.31 µM
B2 | 16.6 ± 2.2 µM
B20 | 22.8 ± 2.99 µM

Target: T3, CT-Ler R90Q
Assay: as above
Conditions: protein: recombinant; tags: N-terminal His6 (pHAT2); blunt

Binder | binding result
B5 | no binding

Target: T4, CT-Ler R90G
Assay: as above
Conditions: protein: recombinant; tags: N-terminal His6 (pHAT2); blunt

Binder | binding result
B5 | no binding

Target: T2, CT-Ler
Assay: fluorescence anisotropy; deviates from 1:1 model, multiple binding suggested; Anisotropy: 40 mM HEPES pH 7.5, 60 mM K-glutamate, 0.01% NaN3, 20 C; EMSA: 15 mM Na-phosphate pH 7.5, 100 mM NaCl, 0.01% NaN3, room temperature; NMR structure:
Conditions: protein: recombinant; tags: N-terminal His6 (pHAT2); blunt

Binder | binding result
B21 | binds
